Measured values published in US20180057595A1 (CELLDEX THERAPEUTICS, published 2018).

B1: Ab238C (antibody, human IgG1, V domains shown)
VH: QVTLKESGPGILQPSQTLSLTCTFSGFSLSTYGMGVAWIRQPSGKDLEWLANIWWDDVNYSNPSLKNRLTISKDTSNNQVFLQITNVDTAETATYYCARIGTSHIVDAWGQGASVTVSA
VL: DIRMTQSPASLSASLGETVNIECLASEDIYSDLAWYQQKPGKSPQLLIYNANTLQNGVPSVFSGSGSGTQYSLKINNLHSEDVATYFCQQYNNYPPTFGGGTKLEIKR
B2: Ab238C-IgG2 (antibody, V domains shown)
VH: QVTLKESGPGILQPSQTLSLTCTFSGFSLSTYGMGVAWIRQPSGKDLEWLANIWWDDVNYSNPSLKNRLTISKDTSNNQVFLQITNVDTAETATYYCARIGTSHIVDAWGQGASVTVSA
VL: DIRMTQSPASLSASLGETVNIECLASEDIYSDLAWYQQKPGKSPQLLIYNANTLQNGVPSVFSGSGSGTQYSLKINNLHSEDVATYFCQQYNNYPPTFGGGTKLEIKR
B3: Ab239C (antibody, human IgG1, V domains shown)
VH: EVQLVESGGGLVQPGRSLKLSCAASGFSFTDCYMAWVRQAPTKGLEWVASISSDGGGTYYRDSVKGRFTISRDNARSSLYLEMDSLRSEDTATYYCTTERYYDGTYYGYWYFDFWGPGTMVTVSA
VL: GQFTLTQPKSVSGSLRSTITIPCVRSSGDIGDRYVSWYQQRLGRPPLNVIYAADQRPSEVSDRFSGSIDSSSNSASLTITDLQMDDEADYFCQSYDSNIDIVFGGGTKLEIKR
B4: Ab239C-IgG2 (antibody, V domains shown)
VH: EVQLVESGGGLVQPGRSLKLSCAASGFSFTDCYMAWVRQAPTKGLEWVASISSDGGGTYYRDSVKGRFTISRDNARSSLYLEMDSLRSEDTATYYCTTERYYDGTYYGYWYFDFWGPGTMVTVSA
VL: GQFTLTQPKSVSGSLRSTITIPCVRSSGDIGDRYVSWYQQRLGRPPLNVIYAADQRPSEVSDRFSGSIDSSSNSASLTITDLQMDDEADYFCQSYDSNIDIVFGGGTKLEIKR
B5: Ab237C-IgG2 (antibody, V domains shown)
VH: EVQLVESGGGLVQPGRSLKLSCAASGFTFSDSYMAWVRQAPTKGLEWVASISSDGGGTYYRDSVKGRFSISRDNAKSSLYLQMDSLRSEDTATYYCTTEGIYTTDYYPYCFNYWGHGVMVTVSA
VL: DIQMTQSPGSLSASLGETVTIECLASADIHSNLAWYQQKPGNSPQLLIYYGNNLNDGVPSRFSGSGSGTQYSLKINSLQSEDVSIYFCQQSYDSPPTFGAGTKLEIKR
B6: Ab235C (antibody, human IgG1, V domains shown)
VH: QVQLQQSGAELMKPGASVKISCKATGYTFSNYWIEWVKQRPGHGLEWIGEILPGSDYTKYNEKFKGKATFTADTSSNTAYMQLSSLTSEDSAVYYCARPSTIPPDCWGQGTTLTVSA
VL: QIVLTQSPAIMSTSPGEKVTMTCSASSSVNYMFWYQQKAGSSPRLLIYDTFNLASGVPVRFSGSGSGTSYSLTISRMEAEDAATYYCQQWSIYPYTFGGGTKLEIKR
B7: Ab235C-IgG2 (antibody, V domains shown)
VH: QVQLQQSGAELMKPGASVKISCKATGYTFSNYWIEWVKQRPGHGLEWIGEILPGSDYTKYNEKFKGKATFTADTSSNTAYMQLSSLTSEDSAVYYCARPSTIPPDCWGQGTTLTVSA
VL: QIVLTQSPAIMSTSPGEKVTMTCSASSSVNYMFWYQQKAGSSPRLLIYDTFNLASGVPVRFSGSGSGTSYSLTISRMEAEDAATYYCQQWSIYPYTFGGGTKLEIKR
B8: Ab236C (antibody, human IgG1, V domains shown)
VH: QAQLQQSGAELMKPGASVKISCKATGYIFSSYWIEWVKQRPGHGLEWIGEILPGSDFIKYSEKFKGKATFTADTSSNTAYMQLSNLTSEDSAVYYCARPSTVPPDCWGQGTTLTVSA
VL: QIVLTQSPAIMSASPGEKVTMTCSASSSVSYMFWYQQKPGSSPRLLIYDTSDLASGVPVRFSGSGSGTSYSLTISRMEAEDAATYYCQQWSNYPYTFGGGTKLEIKR
B9: Ab236C-IgG2 (antibody, V domains shown)
VH: QAQLQQSGAELMKPGASVKISCKATGYIFSSYWIEWVKQRPGHGLEWIGEILPGSDFIKYSEKFKGKATFTADTSSNTAYMQLSNLTSEDSAVYYCARPSTVPPDCWGQGTTLTVSA
VL: QIVLTQSPAIMSASPGEKVTMTCSASSSVSYMFWYQQKPGSSPRLLIYDTSDLASGVPVRFSGSGSGTSYSLTISRMEAEDAATYYCQQWSNYPYTFGGGTKLEIKR
B10: Ab235 (antibody, mouse IgG1, V domains shown)
VH: QVQLQQSGAELMKPGASVKISCKATGYTFSNYWIEWVKQRPGHGLEWIGEILPGSDYTKYNEKFKGKATFTADTSSNTAYMQLSSLTSEDSAVYYCARPSTIPPDCWGQGTTLTVSA
VL: QIVLTQSPAIMSTSPGEKVTMTCSASSSVNYMFWYQQKAGSSPRLLIYDTFNLASGVPVRFSGSGSGTSYSLTISRMEAEDAATYYCQQWSIYPYTFGGGTKLEIKR
notes: Mouse IgG1, kappa
B11: Ab236 (antibody, mouse IgG1, V domains shown)
VH: QAQLQQSGAELMKPGASVKISCKATGYIFSSYWIEWVKQRPGHGLEWIGEILPGSDFIKYSEKFKGKATFTADTSSNTAYMQLSNLTSEDSAVYYCARPSTVPPDCWGQGTTLTVSA
VL: QIVLTQSPAIMSASPGEKVTMTCSASSSVSYMFWYQQKPGSSPRLLIYDTSDLASGVPVRFSGSGSGTSYSLTISRMEAEDAATYYCQQWSNYPYTFGGGTKLEIKR
notes: Mouse IgG1, kappa
B12: Ab237 (antibody, rat IgG2a, V domains shown)
VH: EVQLVESGGGLVQPGRSLKLSCAASGFTFSDSYMAWVRQAPTKGLEWVASISSDGGGTYYRDSVKGRFSISRDNAKSSLYLQMDSLRSEDTATYYCTTEGIYTTDYYPYCFNYWGHGVMVTVSA
VL: DIQMTQSPGSLSASLGETVTIECLASADIHSNLAWYQQKPGNSPQLLIYYGNNLNDGVPSRFSGSGSGTQYSLKINSLQSEDVSIYFCQQSYDSPPTFGAGTKLEIKR
notes: Rat IgG2a, kappa
B13: Ab238 (antibody, rat IgG2a, V domains shown)
VH: QVTLKESGPGILQPSQTLSLTCTFSGFSLSTYGMGVAWIRQPSGKDLEWLANIWWDDVNYSNPSLKNRLTISKDTSNNQVFLQITNVDTAETATYYCARIGTSHIVDAWGQGASVTVSA
VL: DIRMTQSPASLSASLGETVNIECLASEDIYSDLAWYQQKPGKSPQLLIYNANTLQNGVPSVFSGSGSGTQYSLKINNLHSEDVATYFCQQYNNYPPTFGGGTKLEIKR
notes: Rat IgG2a, kappa
B14: Ab239 (antibody, rat IgG2a, V domains shown)
VH: EVQLVESGGGLVQPGRSLKLSCAASGFSFTDCYMAWVRQAPTKGLEWVASISSDGGGTYYRDSVKGRFTISRDNARSSLYLEMDSLRSEDTATYYCTTERYYDGTYYGYWYFDFWGPGTMVTVSA
VL: GQFTLTQPKSVSGSLRSTITIPCVRSSGDIGDRYVSWYQQRLGRPPLNVIYAADQRPSEVSDRFSGSIDSSSNSASLTITDLQMDDEADYFCQSYDSNIDIVFGGGTKLEIKR
notes: Rat IgG2a, lambda

Columns and labels:
[1] = molecular target: MET without the 47 amino acids encoded by exon 14 (H596 cells) (human) (UniProt P08581); experiment: cell-based or functional assay
[2] = molecular target: human MET, cell-surface expressed (human, UniProt P08581 25-1390); experiment: cell-based or functional assay
[3] = molecular target: T1, dog MET on MDCK cells (dog, UniProt Q75ZY9 25-1382); experiment: FACS, serial dilutions of Alexa647-labelled antibody on MDCK cells
T1 construct: whole, on cells; also called Canine (MDCK)
Procedure: (§1) To measure antibody binding affinities against cell surface receptor, antibodies were labeled with the Alexa647 antibody labeling kit and purified per manufacturer's instruction (Invitrogen). A549 (human), 4MBr5 (monkey), MDCK (canine), and MS1 (murine) cells were resuspended in pre-chilled FACS buffer, incubated on ice for 1 hr and distributed to 96-well plates at 10⁵ cell/well. Serial dilutions of labeled antibodies were added to each well and incubated on ice for 4 hrs to allow antibody binding to reach equilibrium. Mean fluorescence intensity was analyzed using a FACS reader (ACCURI™-C6; BD Biosciences), and apparent binding affinities were determined using […] PRISM® software.

[4] = molecular target: T2, murine MET-ECD (murine, UniProt P16056 25-931); experiment: ELISA on coated murine MET-ECD
T2 construct: extracellular domain; also called mouse cMET ECD
Procedure: To measure antibody binding by ELISA, 10 μg of human, murine or chimeric MET-ECD was coated onto 96-well plates (Costar). Serial dilutions of antibodies were added to the plates and incubated at room temperature for 1 hr prior to the addition of HRP-conjugated secondary antibody. Luminescence was measured with BioTek SYNERGY™ HT plate reader, and binding EC₅₀ values were determined using […] PRISM® software.

[5] = molecular target: T3, mouse MET on MS1 cells (mouse, UniProt P16056 25-1379); experiment: FACS, serial dilutions of Alexa647-labelled antibody on MS1 cells
T3 construct: whole, on cells; also called Murine (MS1)
Procedure: as §1

[6] = molecular target: T4, hMET Q328N/R331K/L337P/N338S (human, UniProt P08581 25-1390); experiment: flow cytometry on transfected CHO cells (ND = not detectable)
T4 construct: whole, on cells; also called human to murine
Procedure: (§2) This surface-exposed cluster in the human MET (hMET) protein was replaced with corresponding amino acids from canine or murine MET. hMET mutants were then transfected into CHO cells and antibody binding affinity was measured by flow cytometry.

[7] = molecular target: T5, hMET R331K/S336N (human, UniProt P08581 25-1390); experiment: as above
T5 construct: whole, on cells; also called human to canine
Procedure: as §2

[8] = molecular target: T6, hMET Q328H/R331K/S336N (human, UniProt P08581 25-1390); experiment: as above
T6 construct: whole, on cells; also called human to canine
Procedure: as §2

[9] = molecular target: T7, hMET R331K/L337P (human, UniProt P08581 25-1390); experiment: as above
T7 construct: whole, on cells; also called human to murine
Procedure: as §2

T3 sequence (P16056 25-1379): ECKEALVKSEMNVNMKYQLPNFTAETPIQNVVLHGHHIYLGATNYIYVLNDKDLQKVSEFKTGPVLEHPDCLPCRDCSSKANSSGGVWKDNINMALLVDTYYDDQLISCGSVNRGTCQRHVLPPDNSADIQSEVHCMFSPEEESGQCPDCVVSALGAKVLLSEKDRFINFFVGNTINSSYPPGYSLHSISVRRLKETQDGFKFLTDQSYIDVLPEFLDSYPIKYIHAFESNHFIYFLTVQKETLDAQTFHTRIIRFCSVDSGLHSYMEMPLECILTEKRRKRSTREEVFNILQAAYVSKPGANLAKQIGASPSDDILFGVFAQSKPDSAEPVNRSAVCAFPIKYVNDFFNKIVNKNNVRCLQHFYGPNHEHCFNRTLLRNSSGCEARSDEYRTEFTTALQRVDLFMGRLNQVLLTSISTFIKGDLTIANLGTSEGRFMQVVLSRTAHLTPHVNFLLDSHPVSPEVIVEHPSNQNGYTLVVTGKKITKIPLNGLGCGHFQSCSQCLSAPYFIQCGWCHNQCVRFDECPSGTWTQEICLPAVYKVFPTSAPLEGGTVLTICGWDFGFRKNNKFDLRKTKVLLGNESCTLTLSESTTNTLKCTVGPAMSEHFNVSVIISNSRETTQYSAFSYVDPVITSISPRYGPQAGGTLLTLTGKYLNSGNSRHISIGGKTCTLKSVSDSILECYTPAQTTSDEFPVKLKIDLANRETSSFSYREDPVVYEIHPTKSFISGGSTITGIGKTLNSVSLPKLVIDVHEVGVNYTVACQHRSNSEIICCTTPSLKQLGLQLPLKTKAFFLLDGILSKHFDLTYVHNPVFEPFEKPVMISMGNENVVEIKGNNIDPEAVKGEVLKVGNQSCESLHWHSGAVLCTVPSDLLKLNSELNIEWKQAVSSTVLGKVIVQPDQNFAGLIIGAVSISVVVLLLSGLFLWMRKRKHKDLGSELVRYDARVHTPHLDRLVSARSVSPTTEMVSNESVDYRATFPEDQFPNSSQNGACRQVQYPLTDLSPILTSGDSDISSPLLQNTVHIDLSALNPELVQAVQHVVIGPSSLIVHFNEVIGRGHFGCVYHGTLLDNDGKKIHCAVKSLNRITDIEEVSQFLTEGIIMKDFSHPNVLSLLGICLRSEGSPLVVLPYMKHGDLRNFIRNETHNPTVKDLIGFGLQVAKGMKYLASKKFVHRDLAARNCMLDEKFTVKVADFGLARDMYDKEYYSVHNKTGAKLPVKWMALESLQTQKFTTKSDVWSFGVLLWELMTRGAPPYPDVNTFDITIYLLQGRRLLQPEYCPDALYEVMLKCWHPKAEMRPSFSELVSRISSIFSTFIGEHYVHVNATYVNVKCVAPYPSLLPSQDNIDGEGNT
T1 sequence (Q75ZY9 25-1382): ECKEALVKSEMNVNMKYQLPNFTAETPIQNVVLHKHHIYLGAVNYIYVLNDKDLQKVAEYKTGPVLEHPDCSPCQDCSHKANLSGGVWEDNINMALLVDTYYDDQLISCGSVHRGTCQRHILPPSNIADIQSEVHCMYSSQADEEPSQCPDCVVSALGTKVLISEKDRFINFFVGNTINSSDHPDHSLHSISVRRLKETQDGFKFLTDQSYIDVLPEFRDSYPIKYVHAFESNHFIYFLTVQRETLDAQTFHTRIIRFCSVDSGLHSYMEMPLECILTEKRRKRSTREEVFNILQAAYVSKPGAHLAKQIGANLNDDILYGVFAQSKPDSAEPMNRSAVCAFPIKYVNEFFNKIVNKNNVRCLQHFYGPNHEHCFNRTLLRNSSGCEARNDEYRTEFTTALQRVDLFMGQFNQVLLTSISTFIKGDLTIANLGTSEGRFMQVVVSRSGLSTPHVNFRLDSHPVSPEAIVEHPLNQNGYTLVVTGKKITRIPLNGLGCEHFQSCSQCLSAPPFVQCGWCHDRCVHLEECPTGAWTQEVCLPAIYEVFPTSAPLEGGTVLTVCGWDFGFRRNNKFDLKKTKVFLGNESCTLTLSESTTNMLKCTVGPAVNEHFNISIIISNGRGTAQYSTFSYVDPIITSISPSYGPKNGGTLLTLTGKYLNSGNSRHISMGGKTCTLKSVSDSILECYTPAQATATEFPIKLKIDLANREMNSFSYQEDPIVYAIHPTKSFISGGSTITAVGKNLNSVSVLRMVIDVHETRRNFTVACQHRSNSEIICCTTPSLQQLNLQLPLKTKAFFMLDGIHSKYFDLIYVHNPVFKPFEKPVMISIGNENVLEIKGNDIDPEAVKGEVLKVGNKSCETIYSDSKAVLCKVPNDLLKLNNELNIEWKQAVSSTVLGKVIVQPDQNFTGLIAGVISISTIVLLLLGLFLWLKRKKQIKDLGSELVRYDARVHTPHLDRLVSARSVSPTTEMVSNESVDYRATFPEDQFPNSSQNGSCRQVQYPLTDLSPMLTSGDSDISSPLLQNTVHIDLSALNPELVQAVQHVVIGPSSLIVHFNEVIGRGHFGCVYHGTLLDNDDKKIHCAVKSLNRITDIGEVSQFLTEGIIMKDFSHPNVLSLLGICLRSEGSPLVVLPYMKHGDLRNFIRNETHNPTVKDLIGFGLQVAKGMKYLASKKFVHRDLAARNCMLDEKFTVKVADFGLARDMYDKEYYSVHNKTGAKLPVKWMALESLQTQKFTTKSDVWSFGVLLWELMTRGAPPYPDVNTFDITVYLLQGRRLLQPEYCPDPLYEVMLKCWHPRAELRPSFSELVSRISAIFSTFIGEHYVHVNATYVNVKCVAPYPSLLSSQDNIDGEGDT
T2 sequence (P16056 25-931): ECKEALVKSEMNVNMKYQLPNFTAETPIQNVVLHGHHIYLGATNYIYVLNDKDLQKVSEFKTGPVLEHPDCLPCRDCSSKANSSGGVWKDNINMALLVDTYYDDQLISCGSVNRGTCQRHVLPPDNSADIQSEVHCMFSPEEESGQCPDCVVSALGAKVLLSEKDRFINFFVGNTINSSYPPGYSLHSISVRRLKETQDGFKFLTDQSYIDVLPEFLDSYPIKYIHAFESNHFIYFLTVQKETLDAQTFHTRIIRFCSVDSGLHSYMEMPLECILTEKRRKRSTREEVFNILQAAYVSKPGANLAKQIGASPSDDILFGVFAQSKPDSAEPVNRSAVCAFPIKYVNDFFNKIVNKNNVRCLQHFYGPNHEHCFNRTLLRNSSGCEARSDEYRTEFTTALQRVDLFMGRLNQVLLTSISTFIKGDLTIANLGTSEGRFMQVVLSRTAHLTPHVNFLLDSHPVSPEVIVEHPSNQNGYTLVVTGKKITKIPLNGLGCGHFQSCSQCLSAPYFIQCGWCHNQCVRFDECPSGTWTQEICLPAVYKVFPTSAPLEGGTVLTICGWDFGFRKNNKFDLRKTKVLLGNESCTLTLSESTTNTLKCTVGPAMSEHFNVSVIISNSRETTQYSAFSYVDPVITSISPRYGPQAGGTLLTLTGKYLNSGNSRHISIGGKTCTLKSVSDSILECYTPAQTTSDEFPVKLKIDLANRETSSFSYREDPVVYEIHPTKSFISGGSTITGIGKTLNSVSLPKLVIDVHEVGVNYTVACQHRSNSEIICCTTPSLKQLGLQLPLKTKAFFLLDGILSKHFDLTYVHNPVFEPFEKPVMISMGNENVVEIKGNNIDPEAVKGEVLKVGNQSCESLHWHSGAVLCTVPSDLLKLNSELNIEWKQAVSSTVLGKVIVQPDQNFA

Molecule | maximal percent induction of MET degradation in SNU-5 cells [2] [%] | percent inhibition of MET phosphorylation in SNU-5 cells [2] [%] | binding result [3] | binding result [4] | binding result [5] | further results
HGF (from UniProt P14210 32-728) (ligand) | – | – | – | – | – | receptor degradation, H596 cells, 1 nM HGF for 24 hrs [1]: 30%; receptor degradation, cell lines expressing wild-type MET such as A549 and U87MG, 1 nM HGF [2]: 80%
B1 | 39 | 19 | – | – | – | –
B2 | 35 | 24 | – | – | – | –
B3 | 36 | 33 | – | – | – | –
B4 | 75 | 75 | – | – | – | –
B5 | 81 | 72 | – | – | – | –
B6 | 6 | 10 | – | – | – | –
B7 | 64 | 64 | – | – | – | –
B8 | 19 | 17 | – | – | – | –
B9 | 69 | 75 | – | – | – | –
B10 | – | – | no binding | no binding | no binding | –
B11 | – | – | no binding | no binding | no binding | –
B12 | – | – | no binding | no binding | no binding | binding result [6]: no binding; binding result [7]: no binding; binding result [8]: no binding; binding result [9]: no binding
B13 | – | – | no binding | no binding | no binding | binding result [6]: no binding; binding result [7]: no binding; binding result [8]: no binding; binding result [9]: no binding
B14 | – | – | no binding | no binding | no binding | –
